Laboratory results as given in patent US20250336476A1 (published 2025).

Experiments:
RBD (SARS-CoV-2 spike) = RBD (SARS-CoV-2 spike) (SARS-CoV-2, UniProt P0DTC2 319-541); assay: ELISA
RBD = RBD (SARS-CoV-2, UniProt P0DTC2 319-541); assay: ELISA

B1: Nb64 (VHH)
VHH: QVQLVESGGGLVQAGGSLRLSCAVSGRTFSIAGMGWFRQAPGKDREFLGGITWNDGTTWYADSVKGRFTISRDNAKNMLSLRMNSLKPEDTAVYYCAAGPRLGSTPRAYDYWGQGTQVTVS
- EC50 (RBD (SARS-CoV-2 spike)): 1.22 nM

B2: Nb105 (VHH)
VHH: HVQLVESGGGLVQAGGSLRLSCAVSGRTFSTYGMAWFRQAPGKERDFVATITRSGETTLYADSVKGRFTISRDNAKNTVYLQMNSLKIEDTAVYYCAVRRDSSWGYSRDLFEYDYWGQGTQVTVS
- EC50 (RBD (SARS-CoV-2 spike)): 1.69 nM

B3: Nb95 (VHH)
VHH: QVQLVESGGGLVQAGGSLRLSCAASGRTFSSYSMGWFRQAQGKEREFVATINGNGRDTYYTNSVKGRFTISRDDATNTVYLQMNSLKPEDTAIYYCAADKDVYYGYTSFPNEYEYWGQGTQVTVS
- EC50 (RBD (SARS-CoV-2 spike)): 3.77 nM

B4: Nb93 (VHH)
VHH: EVQLVESGGGLVQPGGSLRLSCAASGFTFSSYAMSWVRQAPGKGREWVAGITPGSGTFYADSVKGRFTISRDNAKNTLSLEINSLKPEDTALYYCAKCRQEFSWDFSSRDPDDFDYWGQGTQVTVS
- EC50 (RBD (SARS-CoV-2 spike)): 1.13 nM

B5: Nb21 WT (VHH)
VHH: QVQLVESGGGLVQAGGSLRLSCAVSGLGAHRVGWFRRAPGKEREFVAAIGANGGNTNYLDSVKGRFTISRDNAKNTIYLQMNSLKPQDTAVYYCAARDIETAEYTYWGQGTQVTVSS
- EC50 (RBD): 1.69 nM

B6: Nb9 (VHH)
VHH: HVQLVESGGGLVQTGGSLRLSCAFSGYTFSTFPTAWFRQAPGKEREFVAGIRWNGGSRDYTEYADFVKGRFTISRDNAKNMIYLQMISLKPEDTALYYCAASHGVVDGTSVNGYRYWGQGTQVTVS
- EC50 (RBD (SARS-CoV-2 spike)): 2.76 nM

B7: humanized Nb21 (hNb21) (VHH)
VHH: QVQLVESGGGLVQPGGSLRLSCAASWFRRAPGKEREFVAYADSVKGRFTISRDNAKNTLYLQMNSLRAEDTAVYYCAAWGQGTLVTVS
- EC50 (RBD (SARS-CoV-2 spike)): 1.34 nM

B8: Nb34 (VHH)
VHH: DVQLVESGGGLVQAGGSLRLSCAASGFTFSNYVMYWGRQAPGKGREWVSGIDSDGSDTAYASSVKGRFTISRDNAKNTLYLQMNNLKPEDTALYYCVKSKDPYGSPWTRSEFDDYWGQGTQVTVS
- EC50 (RBD (SARS-CoV-2 spike)): 0.53 nM

B9: Nb17 (VHH)
VHH: HVQLVESGGGLVQAGGSLRLSCAASGSIFSSNAMSWYRQAPGKQRELVASITSGGNADYADSVKGRFTISRDKNTVYPEMSSLKPADTAVYYCHAVGQEASAYAPRAYWGQGTQVTVS
- EC50 (RBD (SARS-CoV-2 spike)): 0.97 nM
